This series concerns Escherichia coli TOP10. The series can be described thus: shrunken log2 fold change of peptide-encoding DNA abundance (4.5 h post-induction vs induction); higher = less antimicrobial activity (less host growth inhibition). Particulars: time post-induction: 4.5 h; library: site-saturation at positions 5, 18, 19, 20.
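Note: peptides expressed intracellularly from a pBAD plasmid library in pooled LB shake-flask culture, induced with 0.3% L-arabinose, DNA abundance read by NGS, three biological replicates, DESeq2 with apeglm shrinkage.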

Take RRIRYRPPRLPRPRPRPKTKPRP: the “shrunken log2 fold change” value was -0.295.
With RRIRDRPPRLPRPRPRPPKPPRP the figure was 0.214.
On to RRIRHRPPRLPRPRPRPHLYPRP, for which the “shrunken log2 fold change” value was -0.24.
With RRIRRRPPRLPRPRPRPGMMPRP the figure was 0.257; with RRIRYRPPRLPRPRPRPIVHPRP, -2.04; with RRIRWRPPRLPRPRPRPHCVPRP, -0.169.
For RRIRQRPPRLPRPRPRPAEWPRP, the “shrunken log2 fold change” value is -0.357.
As to RRIRKRPPRLPRPRPRPQDRPRP, the “shrunken log2 fold change” value was found to be 0.201.
Take RRIRDRPPRLPRPRPRPLPEPRP: the “shrunken log2 fold change” value turned out to be 0.0958.
In the case of RRIRERPPRLPRPRPRPWYHPRP, the “shrunken log2 fold change” value is -0.588.
With RRIRKRPPRLPRPRPRPIVRPRP the figure was -0.0167; with RRIRGRPPRLPRPRPRPDTQPRP, 0.632; with RRIRRRPPRLPRPRPRPSANPRP, 0.326.
With RRIRQRPPRLPRPRPRPMWCPRP the figure was -0.339; with RRIRVRPPRLPRPRPRPDPDPRP, -0.0209; with RRIRVRPPRLPRPRPRPDLGPRP, 0.155.
With RRIRLRPPRLPRPRPRPITGPRP the figure was -0.0243; with RRIRKRPPRLPRPRPRPNKTPRP, -0.227; with RRIRFRPPRLPRPRPRPYEAPRP, -0.493.
RRIRERPPRLPRPRPRPIRHPRP: the “shrunken log2 fold change” value was -0.397.
Take RRIRARPPRLPRPRPRPNHGPRP: the “shrunken log2 fold change” value is -0.0204.
RRIRCRPPRLPRPRPRPNFSPRP: the “shrunken log2 fold change” value was -0.382.
Under RRIRPRPPRLPRPRPRPKSRPRP stands 0.154; under RRIRNRPPRLPRPRPRPVYDPRP, -0.386.
RRIRNRPPRLPRPRPRPQCPPRP: the “shrunken log2 fold change” value was -0.33.
With RRIRPRPPRLPRPRPRPIGIPRP the figure was 0.208; with RRIRDRPPRLPRPRPRPSPKPRP, -0.00809.
With RRIRHRPPRLPRPRPRPHEMPRP the figure was -0.257; with RRIRVRPPRLPRPRPRPKWRPRP, 0.327; with RRIRLRPPRLPRPRPRPYCCPRP, -1.03.
For RRIRKRPPRLPRPRPRPKSPPRP, the “shrunken log2 fold change” value was 0.385.
Under RRIRHRPPRLPRPRPRPPKGPRP stands 0.113.
RRIRYRPPRLPRPRPRPMQSPRP: the “shrunken log2 fold change” value stood at 2.85.
With RRIRRRPPRLPRPRPRPWTEPRP the figure was 0.116.
Turning to RRIRMRPPRLPRPRPRPDEPPRP, the “shrunken log2 fold change” value is 2.72.
With RRIRVRPPRLPRPRPRPHGEPRP the figure was 0.0918; with RRIRPRPPRLPRPRPRPHKYPRP, -0.29.
With RRIRPRPPRLPRPRPRPNNDPRP the figure was -0.544.
With RRIRKRPPRLPRPRPRPGIGPRP the figure was 0.39; with RRIRPRPPRLPRPRPRPFIIPRP, -0.854; with RRIRMRPPRLPRPRPRPSSAPRP, 0.514.
As for RRIRTRPPRLPRPRPRPTGKPRP, the “shrunken log2 fold change” value is -0.108.
With RRIRFRPPRLPRPRPRPPFTPRP the figure was 0.0652.
With RRIRCRPPRLPRPRPRPPWHPRP the figure was 0.0193; with RRIRERPPRLPRPRPRPDFNPRP, -0.175.
On to RRIRPRPPRLPRPRPRPWCIPRP, for which the “shrunken log2 fold change” value is -0.519.
With RRIRLRPPRLPRPRPRPKIFPRP the figure was -0.0395.
Take RRIRQRPPRLPRPRPRPNLAPRP: the “shrunken log2 fold change” value was found to be 0.281.
Under RRIRFRPPRLPRPRPRPWMCPRP stands -0.0872; under RRIRYRPPRLPRPRPRPTVNPRP, -0.45; under RRIRKRPPRLPRPRPRPCKAPRP, 0.0525.
For the sequence RRIRQRPPRLPRPRPRPGSSPRP, the “shrunken log2 fold change” value is -0.172.
RRIRARPPRLPRPRPRPWCIPRP: the “shrunken log2 fold change” value was -0.319.
Under RRIRVRPPRLPRPRPRPKKPPRP stands -0.0463; under RRIRPRPPRLPRPRPRPVCYPRP, -0.309.
On to RRIRHRPPRLPRPRPRPCLVPRP, for which the “shrunken log2 fold change” value is 0.214.
With RRIRDRPPRLPRPRPRPHEAPRP the figure was 0.151; with RRIRWRPPRLPRPRPRPHFDPRP, -0.0757.
Under RRIRSRPPRLPRPRPRPNFPPRP stands 0.0832; under RRIRFRPPRLPRPRPRPILYPRP, -0.7.
For RRIRSRPPRLPRPRPRPCTYPRP, the “shrunken log2 fold change” value is -0.454.
Under RRIRIRPPRLPRPRPRPTFKPRP stands -0.102.
With RRIRHRPPRLPRPRPRPWWIPRP the figure was -0.177; with RRIRWRPPRLPRPRPRPFDIPRP, -0.838; with RRIRYRPPRLPRPRPRPGYPPRP, -0.299.
As for RRIRLRPPRLPRPRPRPSHKPRP, the “shrunken log2 fold change” value was -0.354.
Under RRIRRRPPRLPRPRPRPGWWPRP stands 0.478; under RRIRRRPPRLPRPRPRPGNIPRP, -0.0618; under RRIRERPPRLPRPRPRPWSTPRP, -0.237.
With RRIRSRPPRLPRPRPRPEKKPRP the figure was 0.0751; with RRIRGRPPRLPRPRPRPHNLPRP, -0.262.
With RRIRYRPPRLPRPRPRPSRTPRP the figure was -0.342.
For the sequence RRIRMRPPRLPRPRPRPGMSPRP, the “shrunken log2 fold change” value is -0.0593.
With RRIRARPPRLPRPRPRPLNEPRP the figure was 0.137; with RRIRHRPPRLPRPRPRPDTGPRP, -0.014.
With RRIRFRPPRLPRPRPRPSVIPRP the figure was -0.339; with RRIRERPPRLPRPRPRPWINPRP, -0.637; with RRIRGRPPRLPRPRPRPHIWPRP, 0.00296.
With RRIRIRPPRLPRPRPRPVISPRP, the “shrunken log2 fold change” value was -0.43.
As for RRIRSRPPRLPRPRPRPCLTPRP, the “shrunken log2 fold change” value was -0.293.
RRIRCRPPRLPRPRPRPEEYPRP: the “shrunken log2 fold change” value was -0.065.
Under RRIRGRPPRLPRPRPRPTRAPRP stands 1.04.
Under RRIRVRPPRLPRPRPRPDYQPRP stands 0.0174.
Under RRIRWRPPRLPRPRPRPWWHPRP stands 0.357.
Take RRIRSRPPRLPRPRPRPPCTPRP: the “shrunken log2 fold change” value is -0.174.
Under RRIRIRPPRLPRPRPRPWQWPRP stands -0.108; under RRIRSRPPRLPRPRPRPMNKPRP, -0.6.
Under RRIRYRPPRLPRPRPRPHFGPRP stands 0.0439; under RRIRPRPPRLPRPRPRPSIKPRP, -0.33; under RRIRSRPPRLPRPRPRPGDEPRP, 0.0674.
With RRIRLRPPRLPRPRPRPISVPRP the figure was -0.343; with RRIRPRPPRLPRPRPRPEHHPRP, -0.0616.
Regarding RRIRCRPPRLPRPRPRPKYVPRP, the “shrunken log2 fold change” value was -0.394.
Under RRIRSRPPRLPRPRPRPCHHPRP stands -0.179.
Consider RRIRPRPPRLPRPRPRPKWQPRP, for which the “shrunken log2 fold change” value turned out to be 0.225.
For the sequence RRIRPRPPRLPRPRPRPLFNPRP, the “shrunken log2 fold change” value is -0.444.
As to RRIRDRPPRLPRPRPRPYKKPRP, the “shrunken log2 fold change” value stood at 0.00426.
With RRIRMRPPRLPRPRPRPWKIPRP the figure was -0.0114.
As to RRIRHRPPRLPRPRPRPEFNPRP, the “shrunken log2 fold change” value worked out at 0.0664.
Consider RRIRHRPPRLPRPRPRPKRSPRP, for which the “shrunken log2 fold change” value is 0.0325.
As for RRIRVRPPRLPRPRPRPCNTPRP, the “shrunken log2 fold change” value was -0.586.
With RRIRTRPPRLPRPRPRPQCNPRP the figure was -0.0399.
As to RRIRERPPRLPRPRPRPIVPPRP, the “shrunken log2 fold change” value was -0.25.
As for RRIRGRPPRLPRPRPRPRHAPRP, the “shrunken log2 fold change” value was 1.05.
With RRIRQRPPRLPRPRPRPQTVPRP the figure was -0.0925.
With RRIRVRPPRLPRPRPRPCAEPRP, the “shrunken log2 fold change” value was -0.0931.
As for RRIRQRPPRLPRPRPRPCEGPRP, the “shrunken log2 fold change” value is -0.000921.
Under RRIRGRPPRLPRPRPRPDRSPRP stands 0.23.
With RRIRWRPPRLPRPRPRPVWLPRP the figure was 0.284; with RRIRQRPPRLPRPRPRPYCSPRP, -0.132; with RRIRTRPPRLPRPRPRPKCMPRP, -0.134.
For RRIRVRPPRLPRPRPRPHQTPRP, the “shrunken log2 fold change” value was -0.443.
Under RRIRWRPPRLPRPRPRPWDAPRP stands 0.22; under RRIRQRPPRLPRPRPRPQGHPRP, -0.017.
With RRIRNRPPRLPRPRPRPLTHPRP the figure was -0.566; with RRIRWRPPRLPRPRPRPMNWPRP, 0.0484; with RRIRQRPPRLPRPRPRPHYRPRP, -0.0839.
Regarding RRIRIRPPRLPRPRPRPSCDPRP, the “shrunken log2 fold change” value is 0.346.
With RRIRVRPPRLPRPRPRPPTVPRP the figure was 0.167; with RRIRCRPPRLPRPRPRPDANPRP, -0.00199; with RRIRKRPPRLPRPRPRPKEIPRP, 0.00103.
For the sequence RRIRWRPPRLPRPRPRPTREPRP, the “shrunken log2 fold change” value is 0.241.
Under RRIRKRPPRLPRPRPRPEENPRP stands -0.00213; under RRIRIRPPRLPRPRPRPQYHPRP, -0.436.
Turning to RRIRTRPPRLPRPRPRPVVMPRP, the “shrunken log2 fold change” value is -0.0861.

Source of the values: the supplement of paper PMC9112550, “Optimization of the antimicrobial peptide Bac7 by deep mutational scanning” (BMC Biology, 2022).
